According to IntAct's records for PubMed 17360471:

Target: sgk1_human SGK1 (UniProt O00141)
Sequence (O00141 whole entry): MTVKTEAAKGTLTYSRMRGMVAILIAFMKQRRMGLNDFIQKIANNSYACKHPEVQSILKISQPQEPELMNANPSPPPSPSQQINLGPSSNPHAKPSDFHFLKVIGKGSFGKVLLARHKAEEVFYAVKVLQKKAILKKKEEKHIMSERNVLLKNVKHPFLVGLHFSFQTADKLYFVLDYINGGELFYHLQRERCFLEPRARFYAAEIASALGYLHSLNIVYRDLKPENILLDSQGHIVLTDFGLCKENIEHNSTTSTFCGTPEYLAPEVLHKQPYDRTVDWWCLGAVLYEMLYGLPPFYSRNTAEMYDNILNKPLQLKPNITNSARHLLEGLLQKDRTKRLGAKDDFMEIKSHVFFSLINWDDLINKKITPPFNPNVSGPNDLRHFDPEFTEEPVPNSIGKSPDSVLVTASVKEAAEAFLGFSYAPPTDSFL

| effect of a mutation on the interaction | Substance |
| --- | --- |
| decreasing interaction strength | Serine/threonine-protein kinase WNK4 (Mus musculus), Q80UE6 Q562E |
| decreasing interaction strength | Serine/threonine-protein kinase WNK4 (Mus musculus), Q80UE6 S1169D |
